{"source": "patent US20070244048A1", "about": "(published 2007)", "key": {"mouse NMUR1-ATG [1]": {"biological_target": "T1, mouse NMUR1-ATG (mouse, UniProt O55040 1-428)", "T1 construct": "whole, on cells; Cell line with engineered ATG start codon in place of the genomic CTG; also called mouse R1-ATG", "T1 sequence (looked up)": "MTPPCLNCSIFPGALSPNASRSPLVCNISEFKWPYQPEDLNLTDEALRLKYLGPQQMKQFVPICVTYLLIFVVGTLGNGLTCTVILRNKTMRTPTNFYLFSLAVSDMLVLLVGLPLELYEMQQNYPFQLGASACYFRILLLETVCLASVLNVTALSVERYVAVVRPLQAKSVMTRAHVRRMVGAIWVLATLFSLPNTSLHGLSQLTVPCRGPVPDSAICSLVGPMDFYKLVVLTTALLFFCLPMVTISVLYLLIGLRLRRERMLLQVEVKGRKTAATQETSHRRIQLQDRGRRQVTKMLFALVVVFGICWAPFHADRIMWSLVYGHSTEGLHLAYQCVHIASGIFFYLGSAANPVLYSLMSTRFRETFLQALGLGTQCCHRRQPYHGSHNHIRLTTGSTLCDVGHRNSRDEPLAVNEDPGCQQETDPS", "experiment": "125I-hNMU-25 displacement, cell membranes"}, "human NMUR1 [2]": {"biological_target": "T2, human NMUR1 (human, UniProt Q9HB89 1-426)", "T2 construct": "whole, on cells; Stably expressed in cells (FLIPR); also called hNMUR1; human R1", "T2 sequence (looked up)": "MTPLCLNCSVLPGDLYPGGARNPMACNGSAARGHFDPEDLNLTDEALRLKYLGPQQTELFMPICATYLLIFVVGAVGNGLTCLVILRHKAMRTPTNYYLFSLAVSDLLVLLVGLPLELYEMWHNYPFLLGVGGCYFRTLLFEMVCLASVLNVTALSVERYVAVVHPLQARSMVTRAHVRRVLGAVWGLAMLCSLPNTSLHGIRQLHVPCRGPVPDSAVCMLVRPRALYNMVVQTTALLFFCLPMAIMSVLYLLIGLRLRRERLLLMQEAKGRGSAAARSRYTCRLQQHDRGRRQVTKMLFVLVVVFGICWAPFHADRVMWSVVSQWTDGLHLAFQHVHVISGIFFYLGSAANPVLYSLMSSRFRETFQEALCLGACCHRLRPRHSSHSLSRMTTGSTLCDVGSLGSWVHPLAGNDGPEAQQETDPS", "experiment": "125I-hNMU-25 displacement, cell membranes"}, "mouse NMUR2 [3]": {"biological_target": "T3, mouse NMUR2 (mouse, UniProt Q8BZ39 1-395)", "T3 construct": "whole, on cells; also called mouse R2", "T3 sequence (Q8BZ39 whole entry)": "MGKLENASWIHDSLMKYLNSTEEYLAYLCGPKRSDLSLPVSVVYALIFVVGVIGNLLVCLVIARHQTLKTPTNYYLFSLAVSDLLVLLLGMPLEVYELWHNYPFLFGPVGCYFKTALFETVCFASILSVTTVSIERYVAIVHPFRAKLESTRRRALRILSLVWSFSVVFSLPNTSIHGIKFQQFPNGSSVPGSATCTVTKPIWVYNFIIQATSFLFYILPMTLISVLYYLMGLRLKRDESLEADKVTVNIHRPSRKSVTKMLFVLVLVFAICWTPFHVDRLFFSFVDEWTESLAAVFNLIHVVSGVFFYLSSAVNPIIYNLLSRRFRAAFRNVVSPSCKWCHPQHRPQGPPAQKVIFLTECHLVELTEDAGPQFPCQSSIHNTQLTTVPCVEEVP", "experiment": "125I-hNMU-25 displacement, cell membranes"}, "rat NMUR1-TTG [4]": {"biological_target": "T4, rat NMUR1-TTG (rat, UniProt Q9JJI5 1-425)", "T4 construct": "whole, on cells; Cell line with the start codon (TTG) as predicted from genomic databases; also called rat R1-TTG", "T4 sequence (looked up)": "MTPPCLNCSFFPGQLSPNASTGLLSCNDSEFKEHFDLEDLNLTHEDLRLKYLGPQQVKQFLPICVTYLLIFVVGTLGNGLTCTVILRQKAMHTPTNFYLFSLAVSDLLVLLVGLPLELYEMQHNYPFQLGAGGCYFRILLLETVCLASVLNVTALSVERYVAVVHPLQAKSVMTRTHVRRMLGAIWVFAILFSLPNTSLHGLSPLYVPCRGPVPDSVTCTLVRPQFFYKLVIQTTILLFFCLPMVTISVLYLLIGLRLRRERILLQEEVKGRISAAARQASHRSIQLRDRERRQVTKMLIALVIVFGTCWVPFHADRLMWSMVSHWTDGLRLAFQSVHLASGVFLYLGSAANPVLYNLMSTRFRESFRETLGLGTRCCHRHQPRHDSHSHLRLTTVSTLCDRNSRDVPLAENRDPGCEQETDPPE", "experiment": "125I-hNMU-25 displacement, cell membranes"}, "mouse NMUR1-CTG [5]": {"biological_target": "T5, mouse NMUR1-CTG (mouse, UniProt O55040 1-428)", "T5 construct": "whole, on cells; Cell line with the start codon (CTG) as predicted from genomic databases; also called mouse R1-CTG", "T5 sequence (looked up)": "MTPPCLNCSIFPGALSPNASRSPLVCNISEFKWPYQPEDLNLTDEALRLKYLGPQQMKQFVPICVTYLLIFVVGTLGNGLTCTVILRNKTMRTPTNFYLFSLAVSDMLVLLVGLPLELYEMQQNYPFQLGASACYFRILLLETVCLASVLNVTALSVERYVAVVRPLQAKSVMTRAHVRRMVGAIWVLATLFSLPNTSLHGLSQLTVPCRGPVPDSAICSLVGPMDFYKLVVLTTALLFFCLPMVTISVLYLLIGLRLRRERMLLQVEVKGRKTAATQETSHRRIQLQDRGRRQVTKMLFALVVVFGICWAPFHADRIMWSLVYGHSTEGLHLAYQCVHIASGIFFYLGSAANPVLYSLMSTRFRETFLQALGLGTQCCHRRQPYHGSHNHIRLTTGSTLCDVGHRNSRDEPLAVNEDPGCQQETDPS", "experiment": "125I-hNMU-25 displacement, cell membranes"}, "human NMUR2 [6]": {"biological_target": "T6, human NMUR2 (human, UniProt Q9GZQ4 1-415)", "T6 construct": "whole, on cells; Stably expressed in cells (FLIPR); also called hNMUR2; human R2", "T6 sequence (Q9GZQ4 whole entry)": "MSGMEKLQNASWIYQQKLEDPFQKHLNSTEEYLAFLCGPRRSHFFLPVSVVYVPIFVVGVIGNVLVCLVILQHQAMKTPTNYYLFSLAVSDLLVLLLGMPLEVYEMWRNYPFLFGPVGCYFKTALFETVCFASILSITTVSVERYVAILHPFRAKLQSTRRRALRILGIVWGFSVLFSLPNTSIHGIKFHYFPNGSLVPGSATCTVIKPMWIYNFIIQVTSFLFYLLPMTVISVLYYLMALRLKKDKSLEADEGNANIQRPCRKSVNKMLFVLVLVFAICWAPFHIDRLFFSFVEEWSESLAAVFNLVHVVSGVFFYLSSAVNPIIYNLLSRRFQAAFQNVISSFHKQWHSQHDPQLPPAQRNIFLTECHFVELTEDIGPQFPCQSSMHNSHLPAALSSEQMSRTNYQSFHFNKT", "experiment": "125I-hNMU-25 displacement, cell membranes"}, "rat NMUR2 [7]": {"biological_target": "T7, rat NMUR2 (rat, UniProt Q9ESQ4 1-395)", "T7 construct": "whole, on cells; also called rat R2", "T7 sequence (Q9ESQ4 whole entry)": "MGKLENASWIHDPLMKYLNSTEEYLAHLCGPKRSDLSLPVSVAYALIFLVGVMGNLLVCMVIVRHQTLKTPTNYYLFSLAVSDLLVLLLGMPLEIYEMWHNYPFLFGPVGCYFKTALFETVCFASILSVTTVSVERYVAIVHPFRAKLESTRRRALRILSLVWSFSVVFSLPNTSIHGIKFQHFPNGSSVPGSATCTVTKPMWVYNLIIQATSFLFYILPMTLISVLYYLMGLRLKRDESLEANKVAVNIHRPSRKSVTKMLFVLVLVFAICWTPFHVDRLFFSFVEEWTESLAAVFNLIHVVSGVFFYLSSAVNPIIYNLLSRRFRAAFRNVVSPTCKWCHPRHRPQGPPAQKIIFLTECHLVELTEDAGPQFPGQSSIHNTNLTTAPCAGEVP", "experiment": "125I-hNMU-25 displacement, cell membranes"}, "rat NMUR1-ATG [8]": {"biological_target": "T8, rat NMUR1-ATG (rat, UniProt Q9JJI5 1-425)", "T8 construct": "whole, on cells; Cell line with engineered ATG start codon in place of the genomic TTG; also called rat R1-ATG", "T8 sequence (looked up)": "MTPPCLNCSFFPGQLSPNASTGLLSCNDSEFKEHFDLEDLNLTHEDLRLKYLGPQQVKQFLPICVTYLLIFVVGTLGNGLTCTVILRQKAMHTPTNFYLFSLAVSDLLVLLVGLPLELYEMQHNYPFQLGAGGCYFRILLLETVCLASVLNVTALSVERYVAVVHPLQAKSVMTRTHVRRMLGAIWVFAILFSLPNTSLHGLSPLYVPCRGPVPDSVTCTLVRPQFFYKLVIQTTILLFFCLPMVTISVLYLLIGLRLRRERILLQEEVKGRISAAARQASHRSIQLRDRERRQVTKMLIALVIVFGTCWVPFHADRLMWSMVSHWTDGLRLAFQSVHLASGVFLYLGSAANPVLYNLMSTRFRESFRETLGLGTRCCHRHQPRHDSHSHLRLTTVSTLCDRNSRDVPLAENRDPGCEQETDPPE", "experiment": "125I-hNMU-25 displacement, cell membranes"}, "mouse NMUR1-ATG [9]": {"biological_target": "T1, mouse NMUR1-ATG", "experiment": "cell-based or functional assay"}, "human NMUR1 [10]": {"biological_target": "T2, human NMUR1", "experiment": "cell-based or functional assay"}, "mouse NMUR2 [11]": {"biological_target": "T3, mouse NMUR2", "experiment": "cell-based or functional assay"}, "rat NMUR1-TTG [12]": {"biological_target": "T4, rat NMUR1-TTG", "experiment": "cell-based or functional assay"}, "human NMUR2 [13]": {"biological_target": "T6, human NMUR2", "experiment": "cell-based or functional assay"}, "rat NMUR1-ATG [14]": {"biological_target": "T8, rat NMUR1-ATG", "experiment": "cell-based or functional assay"}, "mouse NMUR1-ATG [15]": {"biological_target": "T1, mouse NMUR1-ATG", "experiment": "cell-based or functional assay", "remark": "listed apart in the source"}, "human NMUR1 [16]": {"biological_target": "T2, human NMUR1", "experiment": "cell-based or functional assay", "remark": "listed apart in the source"}, "mouse NMUR2 [17]": {"biological_target": "T3, mouse NMUR2", "experiment": "cell-based or functional assay", "remark": "listed apart in the source"}, "rat NMUR1-TTG [18]": {"biological_target": "T4, rat NMUR1-TTG", "experiment": "cell-based or functional assay", "remark": "listed apart in the source"}, "mouse NMUR1-CTG [19]": {"biological_target": "T5, mouse NMUR1-CTG", "experiment": "cell-based or functional assay"}, "human NMUR2 [20]": {"biological_target": "T6, human NMUR2", "experiment": "cell-based or functional assay", "remark": "listed apart in the source"}, "rat NMUR2 [21]": {"biological_target": "T7, rat NMUR2", "experiment": "cell-based or functional assay"}, "rat NMUR1-ATG [22]": {"biological_target": "T8, rat NMUR1-ATG", "experiment": "cell-based or functional assay", "remark": "listed apart in the source"}}, "note": "Read-outs that look alike come from different tables or passages of the source. No end group written: not given here."}
{"binder": "FRVDEEFQSPFASQSRGYFLFRPRN-NH2 (also called hNMU-25; native hNMU)", "note": "[human NMU-25]", "values": [{"measurement": "IC50", "setting": "mouse NMUR1-ATG [1]", "result": 0.4, "unit": "nM"}, {"measurement": "IC50", "setting": "human NMUR1 [2]", "result": 0.14, "unit": "nM"}, {"measurement": "IC50", "setting": "mouse NMUR2 [3]", "result": 0.2, "unit": "nM"}, {"measurement": "IC50", "setting": "rat NMUR1-TTG [4]", "result": 0.2, "unit": "nM"}, {"measurement": "IC50", "setting": "mouse NMUR1-CTG [5]", "result": 0.15, "unit": "nM"}, {"measurement": "IC50", "setting": "human NMUR2 [6]", "result": 0.056, "unit": "nM"}, {"measurement": "IC50", "setting": "rat NMUR2 [7]", "result": 0.6, "unit": "nM"}, {"measurement": "IC50", "setting": "rat NMUR1-ATG [8]", "result": 1.2, "unit": "nM"}, {"measurement": "IC50 (nM), functional", "setting": "mouse NMUR1-ATG [9]", "result": 0.9, "unit": "nM"}, {"measurement": "IC50 (nM), functional", "setting": "human NMUR1 [10]", "result": 0.2, "unit": "nM"}, {"measurement": "IC50 (nM), functional", "setting": "mouse NMUR2 [11]", "result": 0.2, "unit": "nM"}, {"measurement": "IC50 (nM), functional", "setting": "rat NMUR1-TTG [12]", "result": 1, "unit": "nM"}, {"measurement": "IC50 (nM), functional", "setting": "human NMUR2 [13]", "result": 0.8, "unit": "nM"}, {"measurement": "IC50 (nM), functional", "setting": "rat NMUR1-ATG [14]", "result": 1.3, "unit": "nM"}, {"measurement": "IC50 (nM), functional", "setting": "mouse NMUR1-ATG [15]", "result": 0.9, "unit": "nM"}, {"measurement": "IC50 (nM), functional", "setting": "human NMUR1 [16]", "result": 0.2, "unit": "nM"}, {"measurement": "IC50 (nM), functional", "setting": "mouse NMUR2 [17]", "result": 0.2, "unit": "nM"}, {"measurement": "IC50 (nM), functional", "setting": "rat NMUR1-TTG [18]", "result": 1, "unit": "nM"}, {"measurement": "IC50 (nM), functional", "setting": "mouse NMUR1-CTG [19]", "result": 2.9, "unit": "nM"}, {"measurement": "IC50 (nM), functional", "setting": "human NMUR2 [20]", "result": 0.8, "unit": "nM"}, {"measurement": "IC50 (nM), functional", "setting": "rat NMUR2 [21]", "result": 1.6, "unit": "nM"}, {"measurement": "IC50 (nM), functional", "setting": "rat NMUR1-ATG [22]", "result": 1.3, "unit": "nM"}]}
